Experimental data published in US20200095333A1.

Target: human serum albumin (HSA) (human) (UniProt P02768)
Assay: HSA binding class, Table 23

## ABD L64G/I65A/V71A (from UniProt P19909 254-299)
  HSA binding: < 0.1
